Experimental data from patent US20230009161A1.

Target: recombinant human ErbB2/HER2 Fc chimera protein (R&D Systems, cat no. 1129-ER) (human) (UniProt P04626)

In the case of “IgG1^HER2 (monoclonal anti-HER2 IgG1; Trastuzumab) (antibody)”, the Kd is reported as 720 pM.
